# From paper PMC11366018
# Biological target: S2A4 (human)
# Test: BLI
# Sequence of S2A4 (human) (heavy, as listed by the source, chain 1 of 2): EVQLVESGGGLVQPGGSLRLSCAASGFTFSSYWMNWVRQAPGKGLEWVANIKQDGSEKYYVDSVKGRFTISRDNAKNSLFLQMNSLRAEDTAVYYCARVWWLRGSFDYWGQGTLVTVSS
# Sequence of S2A4 (human) (light, as listed by the source, chain 2 of 2): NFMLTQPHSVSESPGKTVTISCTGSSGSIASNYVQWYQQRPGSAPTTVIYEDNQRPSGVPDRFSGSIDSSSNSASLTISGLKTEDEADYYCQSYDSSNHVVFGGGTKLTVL
row,Substance,Kd [nM]
1,Omicron-(L371S+F375S) RBD (from UniProt P0DTC2 319-541) (domain or fragment),75.2
2,Omicron-(L371S+P373S) RBD (from UniProt P0DTC2 319-541) (domain or fragment),89.4
3,Omicron-(P373S+F375S) RBD (from UniProt P0DTC2 319-541) (domain or fragment),38.6
